B1: ZNF263 (parent)
chain: CSECGESFSRSSRLMSHQRTHTG

Variants of: B1
Experiment: protein stability index of a GFP-peptide fusion (GPS, HEK-293T) (PSI 1-6); higher = more stable
Details: c terminus: native
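Note: lentivirally expressed fusions sorted by FACS into six bins by GFP to DsRed ratio, PSI derived from sequencing read proportions per bin multiplied by bin number.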

| Variant | protein stability index |
| --- | --- |
| CFECGESFSRSSRLMSHQRTHTG [S2F] | 1.91 |
| CGECGESFSRSSRLMSHQRTHTG [S2G] | 2.86 |
| CPECGESFSRSSRLMSHQRTHTG [S2P] | 4.06 |
| CRECGESFSRSSRLMSHQRTHTG [S2R] | 2.92 |
| CQECGESFSRSSRLMSHQRTHTG [S2Q] | 2.84 |
| CIECGESFSRSSRLMSHQRTHTG [S2I] | 2.77 |
| CMECGESFSRSSRLMSHQRTHTG [S2M] | 3.38 |
| CLECGESFSRSSRLMSHQRTHTG [S2L] | 2.67 |
| CHECGESFSRSSRLMSHQRTHTG [S2H] | 2.35 |
| CYECGESFSRSSRLMSHQRTHTG [S2Y] | 2.22 |
| CNECGESFSRSSRLMSHQRTHTG [S2N] | 2.62 |
| CVECGESFSRSSRLMSHQRTHTG [S2V] | 3.85 |
| CAECGESFSRSSRLMSHQRTHTG [S2A] | 2.4 |
| CTECGESFSRSSRLMSHQRTHTG [S2T] | 2.54 |
| CDECGESFSRSSRLMSHQRTHTG [S2D] | 2.99 |
| CWECGESFSRSSRLMSHQRTHTG [S2W] | 2.21 |
| CCECGESFSRSSRLMSHQRTHTG [S2C] | 1.79 |
| CKECGESFSRSSRLMSHQRTHTG [S2K] | 2.51 |
| CEECGESFSRSSRLMSHQRTHTG [S2E] | 3.24 |
| CSECLESFSRSSRLMSHQRTHTG [G5L] | 1.92 |
| CSECFESFSRSSRLMSHQRTHTG [G5F] | 3.91 |
| CSECAESFSRSSRLMSHQRTHTG [G5A] | 2.77 |
| CSECKESFSRSSRLMSHQRTHTG [G5K] | 1.29 |
| CSECHESFSRSSRLMSHQRTHTG [G5H] | 1.64 |
| CSECCESFSRSSRLMSHQRTHTG [G5C] | 2.33 |

| Variant | protein stability index |
| --- | --- |
| CSECVESFSRSSRLMSHQRTHTG [G5V] | 1.03 |
| CSECQESFSRSSRLMSHQRTHTG [G5Q] | 2.03 |
| CSECTESFSRSSRLMSHQRTHTG [G5T] | 2.3 |
| CSECYESFSRSSRLMSHQRTHTG [G5Y] | 2.33 |
| CSECDESFSRSSRLMSHQRTHTG [G5D] | 1.79 |
| CSECWESFSRSSRLMSHQRTHTG [G5W] | 1.88 |
| CSECNESFSRSSRLMSHQRTHTG [G5N] | 2.2 |
| CSECEESFSRSSRLMSHQRTHTG [G5E] | 1.41 |
| CSECRESFSRSSRLMSHQRTHTG [G5R] | 1.4 |
| CSECPESFSRSSRLMSHQRTHTG [G5P] | 1.89 |
| CSECSESFSRSSRLMSHQRTHTG [G5S] | 1.69 |
| CSECIESFSRSSRLMSHQRTHTG [G5I] | 2.23 |
| CSECGESHSRSSRLMSHQRTHTG [F8H] | 2.13 |
| CSECGESASRSSRLMSHQRTHTG [F8A] | 1.35 |
| CSECGESRSRSSRLMSHQRTHTG [F8R] | 2.2 |
| CSECGESKSRSSRLMSHQRTHTG [F8K] | 2.14 |
| CSECGESYSRSSRLMSHQRTHTG [F8Y] | 2.39 |
| CSECGESGSRSSRLMSHQRTHTG [F8G] | 2.58 |
| CSECGESWSRSSRLMSHQRTHTG [F8W] | 3.15 |
| CSECGESSSRSSRLMSHQRTHTG [F8S] | 2.11 |
| CSECGESDSRSSRLMSHQRTHTG [F8D] | 2.63 |
| CSECGESTSRSSRLMSHQRTHTG [F8T] | 2.04 |
| CSECGESQSRSSRLMSHQRTHTG [F8Q] | 2.16 |
| CSECGESMSRSSRLMSHQRTHTG [F8M] | 2.21 |
| CSECGESCSRSSRLMSHQRTHTG [F8C] | 2 |

| Variant | protein stability index |
| --- | --- |
| CSECGESESRSSRLMSHQRTHTG [F8E] | 3.32 |
| CSECGESLSRSSRLMSHQRTHTG [F8L] | 1.37 |
| CSECGESNSRSSRLMSHQRTHTG [F8N] | 1.92 |
| CSECGESISRSSRLMSHQRTHTG [F8I] | 1.21 |
| CSECGESPSRSSRLMSHQRTHTG [F8P] | 1.91 |
| VSECGESFSRSSRLMSHQRTHTG [C1V] | 1.59 |
| YSECGESFSRSSRLMSHQRTHTG [C1Y] | 1.9 |
| SSECGESFSRSSRLMSHQRTHTG [C1S] | 2.14 |
| RSECGESFSRSSRLMSHQRTHTG [C1R] | 2.32 |
| ASECGESFSRSSRLMSHQRTHTG [C1A] | 2.23 |
| FSECGESFSRSSRLMSHQRTHTG [C1F] | 1.49 |
| NSECGESFSRSSRLMSHQRTHTG [C1N] | 2.31 |
| HSECGESFSRSSRLMSHQRTHTG [C1H] | 2.11 |
| TSECGESFSRSSRLMSHQRTHTG [C1T] | 2.06 |
| QSECGESFSRSSRLMSHQRTHTG [C1Q] | 2.46 |
| MSECGESFSRSSRLMSHQRTHTG [C1M] | 2.22 |
| LSECGESFSRSSRLMSHQRTHTG [C1L] | 1.75 |
| DSECGESFSRSSRLMSHQRTHTG [C1D] | 1.84 |
| PSECGESFSRSSRLMSHQRTHTG [C1P] | 3.14 |
| KSECGESFSRSSRLMSHQRTHTG [C1K] | 2.05 |
| WSECGESFSRSSRLMSHQRTHTG [C1W] | 1.56 |
| GSECGESFSRSSRLMSHQRTHTG [C1G] | 2.36 |
| ESECGESFSRSSRLMSHQRTHTG [C1E] | 3.15 |
| ISECGESFSRSSRLMSHQRTHTG [C1I] | 2.1 |
| CSECGCSFSRSSRLMSHQRTHTG [E6C] | 2.52 |

| Variant | protein stability index |
| --- | --- |
| CSECGQSFSRSSRLMSHQRTHTG [E6Q] | 2.96 |
| CSECGASFSRSSRLMSHQRTHTG [E6A] | 3.66 |
| CSECGNSFSRSSRLMSHQRTHTG [E6N] | 1.73 |
| CSECGISFSRSSRLMSHQRTHTG [E6I] | 2.15 |
| CSECGYSFSRSSRLMSHQRTHTG [E6Y] | 1.56 |
| CSECGTSFSRSSRLMSHQRTHTG [E6T] | 1.76 |
| CSECGSSFSRSSRLMSHQRTHTG [E6S] | 2.94 |
| CSECGMSFSRSSRLMSHQRTHTG [E6M] | 3.42 |
| CSECGKSFSRSSRLMSHQRTHTG [E6K] | 3.25 |
| CSECGFSFSRSSRLMSHQRTHTG [E6F] | 1.61 |
| CSECGDSFSRSSRLMSHQRTHTG [E6D] | 1.89 |
| CSECGWSFSRSSRLMSHQRTHTG [E6W] | 2.02 |
| CSECGLSFSRSSRLMSHQRTHTG [E6L] | 3.22 |
| CSECGPSFSRSSRLMSHQRTHTG [E6P] | 1.92 |
| CSECGVSFSRSSRLMSHQRTHTG [E6V] | 2.97 |
| CSECGHSFSRSSRLMSHQRTHTG [E6H] | 2.05 |
| CSECGRSFSRSSRLMSHQRTHTG [E6R] | 3.9 |
| CSECGERFSRSSRLMSHQRTHTG [S7R] | 2.33 |
| CSECGEIFSRSSRLMSHQRTHTG [S7I] | 3.88 |
| CSECGEYFSRSSRLMSHQRTHTG [S7Y] | 3.8 |
| CSECGEQFSRSSRLMSHQRTHTG [S7Q] | 3.41 |
| CSECGETFSRSSRLMSHQRTHTG [S7T] | 3.69 |

From the supplement of paper PMC10567573
